The domain aggregation screens of Martell et al. (2025)

Experiment: soluble fraction after stress (log2 fold change); higher = more stays soluble; pooled small domains, quantitative proteomics
Settings: stress: pH 4
How it was run: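 Values are on a log2 scale, where higher means more of the domain stayed soluble after pH 4 stress. They are fold changes in the soluble amount of each domain from pooled custom libraries, measured by high-throughput quantitative proteomics. The fold change is taken to reflect aggregation propensity.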

Sequence | soluble fraction (log2)
HMETLKEMDSKGAINASEVNVREGAGTSSSKMYSLSKGASVDVTGIKGDWYRVHTSKGTGYVLAKYVTLVS | ≥ 0.43
HMQISDDGFILKIINEVVAENPKSISDYISGKEAAVGFLVGQIMKKTRGKANPKLVNEMLITELAKLKN | -0.393
HMNGTEAIRRYIDQFASKHATTPRMLKLNERKQLIQELKNNGLLEIKKAVETVAQHLGISRASAYLYVKE | ≥ 0.43
HMTEDADIERRLTGILASAGWYRSLAVEVKEGIVYLDGATASGNHRDWAGSLAAKTEGVVAVVNRIEVQP | -0.285
HMETGELQQILEDVFSKNIGIVQDKREAAFSILMGMIMAKSRGRADGALVSTLLKKKLTEFLATSDQVR | -0.196
HMLTAPMPGIVRQVNVDTGQKVRKGQPLMVLEAMKMEHQIIAPQAGKIEAIHYNEGDRVEMGSVLISIF | -0.538
HMGDTISVPAVRTLAYNKAMDILNAEGLKGIVADSVYDNHTAPGTVIEQNPKAGTIVKEGREVFLTIHA | -0.0483
HMTDLALHIGKTLRELRQRRGWSLDKTAQATGVSKAMLGQIERGESSPTVVTLWRISSGLQASFSEFLPP | 0.0792
HMKFYIHEIIGFNAVDKVAGIVGKVININEDSPQKKLVVNYNGKEVFIPLVDEIVRKIDKQKNEVLITMP | -0.174
HMTELIEDYVELIGDLIRHRGEARAADIANRMAVSQATVSKMIRRLNELGLVTSKPYRSLFLTDEGQKMAE | -0.469
HMDHKTKLQEVLQKSGDVFIEYRLIKEEGPAHERIFWIEVYVDDQLIGTGQGKSKKLAEQAAAENALAALE | -1.15
HMDQNVSVPKLAGLQVEEANAILKSKGLHIEIIDSIYQKDAVPGAIIEQVPEENSKVKKGRAIYVSVYAK | 0.0139
HMTRQKEAILALLTDSRGEALSASELLARLTRSGSSIGRTTVYRLLSQLVDDGVVRAWRDASRGITLYELS | -0.44
HMNINLDINTYTVKELEKLLKLEVPYSDNNVFEKKNLMVKMIQTSTIAETKKEELYIFLDNIYNRLTNNLE | -0.942
HMNDIDKFVAALVDQDTMAGTNRAFDENDIQTMKNMSSIEDVKQYAVANGLSSGKVNNALISAGL | -0.195
HMDDGALQIRLGPQALQQRLDKLGYSLNKEDLDLVYQYFLHSADSKGAVYDQELRELMGEAGVE | -0.607
HMAAEGARNNSLFNSLRERALEVSSHNELEQIAFKMNETNIPPLRASEVISVVNSVWKNRISNQIIP | -0.0841
HMEDEISLGAINVPRGSVIVTAGGARLVEGSDYTVDYYSGTVKILNKSLLDAGTPINVSLET | -0.0859
HMRQQQISAAIKTSVNGTVDYYVRRLPERDPRGDFLEVWDDLQKVIQAAHGIQVSHDELYEYFRRLK | -1.19
HMDPTEPLFVGVVTAEPYLNIREYPTTQSKDLGDLFPGMHVNVYEIVPNWYRIDDGWVASAWVKRDWGGG | -0.314
HMDEKSGWLHLAPHEGALRAALYAEHAVQEERTAPDGSQWLRLVLREKHYHQIQSKYNRRLTLHTQPDPS | ≥ 0.43
HMKLARGEFEIMAKFIKEISGISLEQNKTYLIESRLSDLAESEGVKTFSDFFFKAKFNKILKEKIIDAI | -0.957
HMVDLLDETLIEFYAFANNLIKDLETNSEKYGGMSQFEKELIFNEQITQYQRKLKIDLQDEVG | -1.39
HMEDGEVTVPDLRGLTIKEAGTILEKLGLHLSPVGTGLAVRQDVAPGSKVARDTTITVEFEPPDIQVLR | -0.259
HMDFSYTVGDIDEPIDSRGNSVIMLRKLAWGSNAEKLEIRRWIIDIDSERANKGVTFLTEEGPHNLVRV | -0.332
HMAGNNTATKEIAELLIAKGADVNAMNLSPPGREIGGMTPLDMAILGNRNEIADLLRKHGGRTQKELKAE | -0.104
HMSFVAYEEEKAIGMVRLIGDGGMSFYIKDFAVLPGHQGKGVGQMLLMELQQYLLEHKPADWAVSLE | -1.47
HMDGISANAVKALIESLIAGEDKRKPLSDQAMSDRLALQGIVLARRTVAKYREELNFPPAHQRKQK | 0.22
HMAEVRTLLVPIELAGMRFDQVLAELLPEFSRSRLAAWIKSGDALLDGHDAKPKGVVRGGEQIEIRLA | -0.167
HMGSLGRAIRSRREKMKVGLEELAAKTGLSESHISDIEEGRGFAPVGDILKIARALTIDPGELLK | 0.426
